From patent US8840891 (RSR, dated 2014)

Legend:
[1] = biological target: human TSHR, wild type, expressed on CHO cells (human) (UniProt P16473); assay: cell-based or functional assay
TSHR coated onto tubes [2] = biological target: T1, TSHR coated onto tubes (human, UniProt P16473 21-764, limits assumed); assay: TSHR coated tubes, competitor 125I-M22 IgG
T1 construct: whole entry named; also called TSHR coated tubes; thyrotropin receptor

TSHR coated onto tubes [3] = biological target: T1, TSHR coated onto tubes; assay: TSHR coated tubes, competitor 125I-TSH
TSHR coated onto tubes [4] = biological target: T1, TSHR coated onto tubes; assay: TSHR coated tubes, competitor 125I-5C9 IgG
[5] = biological target: human TSHR (wild type) expressed in CHO cells (human) (UniProt P16473); assay: cell-based or functional assay

Row | % inhib of 125I-M22 IgG binding at 0.01 µg/mL (TSHR coated onto tubes [2]) [%] | % inhib of 125I-M22 IgG binding at 0.1 µg/mL (TSHR coated onto tubes [2]) [%] | % inhib of 125I-M22 IgG binding at 1 µg/mL (TSHR coated onto tubes [2]) [%] | % inhib of 125I-M22 IgG binding at 10 µg/mL (TSHR coated onto tubes [2]) [%] | % inhib of 125I-M22 IgG binding at 100 µg/mL (TSHR coated onto tubes [2]) [%] | % inhib of 125I-TSH binding at 0.01 µg/mL (TSHR coated onto tubes [3]) [%] | % inhib of 125I-TSH binding at 0.1 µg/mL (TSHR coated onto tubes [3]) [%] | % inhib of 125I-TSH binding at 1 µg/mL (TSHR coated onto tubes [3]) [%] | % inhib of 125I-TSH binding at 10 µg/mL (TSHR coated onto tubes [3]) [%] | % inhib of 125I-TSH binding at 100 µg/mL (TSHR coated onto tubes [3]) [%] | % inhib of 125I-5C9 IgG binding at 0.01 µg/mL (TSHR coated onto tubes [4]) [%] | % inhib of 125I-5C9 IgG binding at 0.1 µg/mL (TSHR coated onto tubes [4]) [%] | % inhib of 125I-5C9 IgG binding at 1 µg/mL (TSHR coated onto tubes [4]) [%] | % inhib of 125I-5C9 IgG binding at 10 µg/mL (TSHR coated onto tubes [4]) [%] | % inhib of 125I-5C9 IgG binding at 100 µg/mL (TSHR coated onto tubes [4]) [%] | Molecule | further results
1 |  |  |  |  |  |  |  |  |  |  |  |  |  |  |  | recombinant human TSH (NIBSC reference preparation 94/674) (from UniProt P01215 25-116; P01222 21-138) (ligand) | cyclic AMP; Exp 1; recombinant human TSH 100 ng/mL only [1]: 12.7 pmol/mL; cyclic AMP; Exp 2; recombinant human TSH 100 ng/mL only [1]: 16.7 pmol/mL; cyclic AMP; Exp 3; recombinant human TSH 100 ng/mL only [1]: 26.4 pmol/mL
2 |  |  |  |  |  |  |  |  |  |  |  |  |  |  |  | native human TSH (NIBSC reference preparation 81/565) (from UniProt P01215 25-116; P01222 21-132) (ligand) | cyclic AMP; Exp 1; native human TSH 100 ng/mL only [1]: 36.1 pmol/mL; cyclic AMP; Exp 2; native human TSH 100 ng/mL only [1]: 40.8 pmol/mL; cyclic AMP; Exp 3; native human TSH 100 ng/mL only [1]: 31.1 pmol/mL
3 | 3 | 15 | 37 | 60 | 62 | 4 | 12.5 | 37 | 52 | 57 | 1 | 10 | 35 | 50.5 | 63 | 14D3 IgG (antibody, V domains shown) VH: DVQMQQPGPELVKPGASLKMSCKASGYSFTGYNMHWVKQSHGKSLEWIGYIDPYSGATSYNQKFEGKATLTVDKSSSTAYMQLNSLTSEDSAVYYCARRWDWDPYAMDYWGQGTSVTVSS VL: NILMTQSPAILSVSPGERVSFACRASQSIGTSIHWYQQRTNGSPRLLIKYASESISGIPSRFSGSGSGTDFTLSINSVESEDIADYYCQQTNRWPLTFGAGTKLELKR | 
4 | 12 | 22 | 40 | 51 | 53 | 9 | 26 | 39 | 44 | 48 | 20 | 34 | 47 | 53 | 59 | 16E5 IgG (antibody, V domains shown) VH: DVQLVQSGPELVKPGASVKMSCKASGYSFTGYNMHWVKQSHGKSLEWIGYIDPYNGATSYNQKFEDKATLTVDKSSSTAYMQLNSLTSEDSAVYYCARRWDWDPYAMDYWGQGTSVTVSS VL: DILLTQSPAILSVSPGERVSFSCRASQSIGTSIHWYQQRTNGSPRLLIKYASESISGIFSRFSGSGSGTDFTLTINSVESEDIADYYCQQSNRWPLTFGAGTKLELKR | 
5 |  |  |  |  |  |  |  |  |  |  |  |  |  |  |  | 5C9 Fab (Fab, from another filing, V domains shown) VH: EVQLVESGGGLIQPGGSLRLSCAASGFTVSSNYMSWVRQAPGKGLEWVSVTYSGGSTSYADSVKGRFTISRDNSKNTLYLQMNSLRAEDTAVYYCARGGRYCSSISCYARSGCDYWGQGTLVTVSS VL: AIQMTQSPSSLSASVGDRVTITCRASQSISNYLNWYQQKPGKAPKLLIYAASSLQSGVPSRFSGSGSGTDFTLTISSLQPEDFATYYCQQSYSSPSTTFGQGTKLEIK | cyclic AMP; Example 1; 5C9 Fab 10 µg/mL + TSH (fmol/cell well) [5]: 1280; cyclic AMP; Example 1; 5C9 Fab 100 µg/mL + TSH (fmol/cell well) [5]: 938; cyclic AMP; Example 1; 5C9 Fab 100 µg/mL only (fmol/cell well) [5]: 235; cyclic AMP; Example 2; 5C9 Fab 10 µg/mL + TSH (fmol/cell well) [5]: 4130; cyclic AMP; Example 2; 5C9 Fab 100 µg/mL + TSH (fmol/cell well) [5]: 867; cyclic AMP; Example 2; 5C9 Fab 100 µg/mL only (fmol/cell well) [5]: 212; % inhibition of basal cyclic AMP production; Exp 3; 5C9 F(ab′) 0.001 µg/mL [1]: 3%; % inhibition of basal cyclic AMP production; Exp 3; 5C9 F(ab′) 0.1 µg/mL [1]: 19%; % inhibition of basal cyclic AMP production; Exp 3; 5C9 F(ab′) 1 µg/mL [1]: 23%; % inhibition of basal cyclic AMP production; Exp 3; 5C9 F(ab′) 10 µg/mL [1]: 39%; % inhibition of basal cyclic AMP production; Exp 3; 5C9 F(ab′) 100 µg/mL [1]: 48%; % inhibition of basal cyclic AMP production; Exp 3; 5C9 Fab 0.1 µg/mL [1]: 11%; % inhibition of basal cyclic AMP production; Exp 3; 5C9 Fab 1 µg/mL [1]: 39%; % inhibition of basal cyclic AMP production; Exp 3; 5C9 Fab 10 µg/mL [1]: 46%; % inhibition of basal cyclic AMP production; Exp 3; 5C9 Fab 100 µg/mL [1]: 61%
